# Experimental data from patent publication US20240277868.
# Tested on: synthetic TNF-derived myristoylated peptide
substance,measurement,value
purified recombinant His-tagged wild type SIRT6,KmPEP,61.1 µM
